In data set [1] the test system is HeLa Kyoto. The data set can be described thus: melting temperature (median over replicates), in situ; higher = more thermally stable.
Data set [2] has as its system HeLa Kyoto. Put plainly: solubility in G1/S (NP-40 vs SDS abundance) (log2 ratio); higher = more soluble. The note with it: cell cycle stage: G1/S.
The subject of data set [3] is HeLa Kyoto. The data set can be described thus: thermal stability score vs G1/S (z-score of summed log2 fold changes over temperatures); higher = more thermally stable than in G1/S.
Data set [4] concerns HeLa Kyoto. Put plainly: solubility change mitosis vs G1/S (difference of NP-40 vs SDS log2 ratios) (log2 ratio difference); higher = more soluble in mitosis.
The mark [5] stands for this setting: cell cycle stage: early G1 (4.5 h after nocodazole release).
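For melting temperature (median over replicates), in situ in this document: HeLa Kyoto cells synchronized by double thymidine or nocodazole block, proteins quantified by TMT10plex mass spectrometry, three independent biological replicates.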
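For solubility change mitosis vs G1/S (difference of NP-40 vs SDS log2 ratios) in this document: synchronized HeLa Kyoto cells (double thymidine block for G1/S, nocodazole release for mitosis), protein amounts in NP-40 versus SDS lysates quantified by mass spectrometry, three biological replicates.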
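For solubility in G1/S (NP-40 vs SDS abundance) in this document: HeLa Kyoto cells arrested at G1/S by double thymidine block, proteins quantified by TMT10plex mass spectrometry in mild NP-40 versus SDS extracts, three biological replicates.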
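For thermal stability score vs G1/S (z-score of summed log2 fold changes over temperatures) in this document: synchronized HeLa Kyoto cells, proteins quantified by TMT10plex mass spectrometry, three biological replicates, mitosis taken 0.5 h after nocodazole release, G1/S directly after double thymidine block.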

For “MPAERKKPASMEEKDSLPNNKEKDCSERRTVSSKERPKDDIKLTAKKEVSKAPEDKKKRLEDDKRKKEDKERKKKDEEKVKAEEESKKKEEEEKKKHQEEERKKQEEQAKRQQEEEAAAQMKEKEESIQLHQEAWERHHLRKELRSKNQNAPDSRPEENFFSRLDSSLKKNTAFVKKLKTITEQQRDSLSHDFNGLNLSKYIAEAVASIVEAKLKISDVNCAVHLCSLFHQRYADFAPSLLQVWKKHFEARKEEKTPNITKLRTDLRFIAELTIVGIFTDKEGLSLIYEQLKNIINADRESHTHVSVVISFCRHCGDDIAGLVPRKVKSAAEKFNLSFPPSEIISPEKQQPFQNLLKEYFTSLTKHLKRDHRELQNTERQNRRILHSKGELSEDRHKQYEEFAMSYQKLLANSQSLADLLDENMPDLPQDKPTPEEHGPGIDIFTPGKPGEYDLEGGIWEDEDARNFYENLIDLKAFVPAILFKDNEKSCQNKESNKDDTKEAKESKENKEVSSPDDLELELENLEINDDTLELEGGDEAEDLTKKLLDEQEQEDEEASTGSHLKLIVDAFLQQLPNCVNRDLIDKAAMDFCMNMNTKANRKKLVRALFIVPRQRLDLLPFYARLVATLHPCMSDVAEDLCSMLRGDFRFHVRKKDQINIETKNKTVRFIGELTKFKMFTKNDTLHCLKMLLSDFSHHHIEMACTLLETCGRFLFRSPESHLRTSVLLEQMMRKKQAMHLDARYVTMVENAYYYCNPPPAEKTVKKKRPPLQEYVRKLLYKDLSKVTTEKVLRQMRKLPWQDQEVKDYVICCMINIWNVKYNSIHCVANLLAGLVLYQEDVGIHVVDGVLEDIRLGMEVNQPKFNQRRISSAKFLGELYNYRMVESAVIFRTLYSFTSFGVNPDGSPSSLDPPEHLFRIRLVCTILDTCGQYFDRGSSKRKLDCFLVYFQRYVWWKKSLEVWTKDHPFPIDIDYMISDTLELLRPKIKLCNSLEESIRQVQDLEREFLIKLGLVNDKDSKDSMTEGENLEEDEEEEEGGAETEEQSGNESEVNEPEEEEGSDNDDDEGEEEEEENTDYLTDSNKENETDEENTEVMIKGGGLKHVPCVEDEDFIQALDKMMLENLQQRSGESVKVHQLDVAIPLHLKSQLRKGPPLGGGEGEAESADTMPFVMLTRKGNKQQFKILNVPMSSQLAANHWNQQQAEQEERMRMKKLTLDINERQEQEDYQEMLQSLAQRPAPANTNRERRPRYQHPKGAPNADLIFKTGGRRR [UPF2]”, the melting temperature in the data set on HeLa Kyoto [1] (cell cycle stage: G1/S) came to 49.6 °C; with HeLa Kyoto [1] (cell cycle stage: mitosis) it was 49.7 °C. Also, in the data set on HeLa Kyoto [2], the “solubility in G1/S (log2)” value was -0.245. Moreover, the thermal stability score in the data set with HeLa Kyoto [3] (setting [5]) was -0.603; in the data set on HeLa Kyoto [3] (cell cycle stage: mitosis), -0.161. The “solubility change mitosis (log2)” value in the data set on HeLa Kyoto [4] was -0.109.

Take “MALDVKSRAKRYEKLDFLGEGQFATVYKARDKNTNQIVAIKKIKLGHRSEAKDGINRTALREIKLLQELSHPNIIGLLDAFGHKSNISLVFDFMETDLEVIIKDNSLVLTPSHIKAYMLMTLQGLEYLHQHWILHRDLKPNNLLLDENGVLKLADFGLAKSFGSPNRAYTHQVVTRWYRAPELLFGARMYGVGVDMWAVGCILAELLLRVPFLPGDSDLDQLTRIFETLGTPTEEQWPDMCSLPDYVTFKSFPGIPLHHIFSAAGDDLLDLIQGLFLFNPCARITATQALKMKYFSNRPGPTPGCQLPRPNCPVETLKEQSNPALAIKRKRTEALEQGGLPKKLIF [CDK7]”: the melting temperature in the data set on HeLa Kyoto [1] (cell cycle stage: G1/S) and in the data set with HeLa Kyoto [1] (cell cycle stage: mitosis) was 51 °C in each case. The “solubility in G1/S (log2)” value with HeLa Kyoto [2] is 0.167. Moreover, the thermal stability score was 0.106 in the data set with HeLa Kyoto [3] (setting [5]) and 1.13 with HeLa Kyoto [3] (cell cycle stage: mitosis). The “solubility change mitosis (log2)” value with HeLa Kyoto [4] is -0.142.

For the sequence “MERPPGLRPGAGGPWEMRERLGTGGFGNVCLYQHRELDLKIAIKSCRLELSTKNRERWCHEIQIMKKLNHANVVKACDVPEELNILIHDVPLLAMEYCSGGDLRKLLNKPENCCGLKESQILSLLSDIGSGIRYLHENKIIHRDLKPENIVLQDVGGKIIHKIIDLGYAKDVDQGSLCTSFVGTLQYLAPELFENKPYTATVDYWSFGTMVFECIAGYRPFLHHLQPFTWHEKIKKKDPKCIFACEEMSGEVRFSSHLPQPNSLCSLVVEPMENWLQLMLNWDPQQRGGPVDLTLKQPRCFVLMDHILNLKIVHILNMTSAKIISFLLPPDESLHSLQSRIERETGINTGSQELLSETGISLDPRKPASQCVLDGVRGCDSYMVYLFDKSKTVYEGPFASRSLSDCVNYIVQDSKIQLPIIQLRKVWAEAVHYVSGLKEDYSRLFQGQRAAMLSLLRYNANLTKMKNTLISASQQLKAKLEFFHKSIQLDLERYSEQMTYGISSEKMLKAWKEMEEKAIHYAEVGVIGYLEDQIMSLHAEIMELQKSPYGRRQGDLMESLEQRAIDLYKQLKHRPSDHSYSDSTEMVKIIVHTVQSQDRVLKELFGHLSKLLGCKQKIIDLLPKVEVALSNIKEADNTVMFMQGKRQKEIWHLLKIACTQSSARSLVGSSLEGAVTPQTSAWLPPTSAEHDHSLSCVVTPQDGETSAQMIEENLNCLGHLSTIIHEANEEQGNSMMNLDWSWLTE [CHUK]”, the values for the melting temperature with HeLa Kyoto [1] (cell cycle stage: G1/S) and in the data set on HeLa Kyoto [1] (cell cycle stage: mitosis) were 48.7 °C and 49.1 °C, respectively. Further, the “solubility in G1/S (log2)” value in the data set with HeLa Kyoto [2] was found to be 0.0423. Also, the figures for the thermal stability score in the data set with HeLa Kyoto [3] (setting [5]) and with HeLa Kyoto [3] (cell cycle stage: mitosis) were 0.418 and 1.15, respectively. For the same sequence, the “solubility change mitosis (log2)” value in the data set with HeLa Kyoto [4] is -0.139.

Take “MEHIRTTKVEQVKLLDRFSTSNKSLTGTLYLTATHLLFIDSHQKETWILHHHIASVEKLALTTSGCPLVIQCKNFRTVHFIVPRERDCHDIYNSLLQLSKQAKYEDLYAFSYNPKQNDSERLQGWQLIDLAEEYKRMGVPNSHWQLSDANRDYKICETYPRELYVPRIASKPIIVGSSKFRSKGRFPVLSYYHQDKEAAICRCSQPLSGFSARCLEDEHLLQAISKANPVNRYMYVMDTRPKLNAMANRAAGKGYENEDNYSNIRFQFVGIENIHVMRSSLQKLLEVNGTKGLSVNDFYSGLESSGWLRHIKAVMDAAIFLAKAITVENASVLVHCSDGWDRTSQVCSLGSLLLDSYYRTIKGFMVLIEKDWISFGHKFSERCGQLDGDPKEVSPVFTQFLECVWHLTEQFPQAFEFSEAFLLQIHEHIHSCQFGNFLGNCQKEREELKLKEKTYSLWPFLLEDQKKYLNPLYSSESHRFTVLEPNTVSFNFKFWRNMYHQFDRTLHPRQSVFNIIMNMNEQNKQLEKDIKDLESKIKQRKNKQTDGILTKELLHSVHPESPNLKTSLCFKEQTLLPVNDALRTIEGSSPADNRYSEYAEEFSKSEPAVVSLEYGVARMTC [MTMR6]”: the results for the melting temperature with HeLa Kyoto [1] (cell cycle stage: G1/S) and in the data set on HeLa Kyoto [1] (cell cycle stage: mitosis) were 51 °C and 50.5 °C, respectively. Besides, the “solubility in G1/S (log2)” value with HeLa Kyoto [2] is -0.264. The thermal stability score in the data set with HeLa Kyoto [3] (setting [5]) was -0.167; in the data set on HeLa Kyoto [3] (cell cycle stage: mitosis), 0.0404. In the data set with HeLa Kyoto [4], the “solubility change mitosis (log2)” value was 0.0297.
